Experimental data from paper PMC9525012, “Characterization of sabatolimab, a novel immunotherapy with immuno-myeloid activity directed against TIM-3 receptor” (Immunotherapy Advances, 2022).
Values joined by “and” are separate entries in the source; they are usually repeats but may differ in a detail not shown here. Identical values can stand only once. Blank lines part the entries; values can stand above or below the molecule they belong to.

Assays:
[1] = biological target: human TIM-3-Fc fusion protein (human) (UniProt Q8TDQ0); assay: other; competition with SULFO-TAG galectin-9, MSD
[2] = biological target: T1, recombinant human TIM-3/His (human, UniProt Q8TDQ0 22-202); assay: SPR; Biacore; sabatolimab captured (~50 RU) by a human Fab capture antibody amine-coupled on a CM5 chip; TIM-3/His as analyte, 90 nM diluted 1:3, seven concentrations, HBS-EP+ buffer; 1:1 binding model, double reference subtraction; settings: both partners purified
T1 construct: T-cell immunoglobulin domain and mucin domain-3 (TIM-3), human; Probably the extracellular domain (surmised); also called human recombinant TIM-3; source: bought: Sino Biological Inc

[3] = biological target: cynomolgus monkey TIM-3 expressed on 300.19 cells (cynomolgus monkey); assay: flow cytometry on cells; 300.19 cells expressing human or cynomolgus TIM-3 incubated with titrated sabatolimab at 4°C for 4 hours; PE anti-hIgG secondary; Kd from best-fit binding curves (GraphPad Prism)
[4] = biological target: T2, human TIM-3 expressed on 300.19 cells (human, UniProt Q8TDQ0 22-301); assay: as above; settings: one partner purified
T2 construct: TIM-3, human, expressed on the surface of 300.19 cells; Also used for the functional rows on cells that express human TIM-3 (Raji hTIM-3 o.e., HNT-34, dendritic cells); source: 300.19 cells engineered to express human TIM-3 (lab of Gordon Freeman)

IC50 [1]: 9.81 nM
Molecule: sabatolimab Fab'2

Kd [2]: 0.176 nM and 0.162 nM and 0.163 nM
Kd [3]: 0.9 nM
Kd [4]: 0.5 ± 0.1 nM
B1: Sabatolimab, humanized anti-TIM-3 monoclonal antibody (hIgG4, S228P) (antibody, V domains shown)
VH: QVQLVQSGAEVKKPGSSVKVSCKASGYTFTSYNMHWVRQAPGQGLEWMGDIYPGNGDTSYNQKFKGRVTITADKSTSTVYMELSSLRSEDTAVYYCARVGGAFPMDYWGQGTTVTVSS
VL: AIQLTQSPSSLSASVGDRVTITCRASESVEYYGTSLMQWYQQKPGKAPKLLIYAASNVESGVPSRFSGSGSGTDFTLTISSLQPEDFATYFCQQSRKDPSTFGGGTKVEIKR
notes: whole heavy chain as printed; whole kappa light chain as printed; IgG4/kappa; humanized from the murine monoclonal antibody 22C1; also called MBG453; sabatolimab whole antibody; source: CHO cells, transiently produced (told of the ten selected humanized clones)
